Source: article PMC8857470, “Molecular insights into the maturation of phosphodiesterase 6 by the specialized chaperone complex of HSP90 with AIPL1” (The Journal of Biological Chemistry, 2022)

Target: Avi-tagged HSP90β (full-length human HSP90β, residues 1–724) (human) (UniProt P08238)
Sequence (P08238 whole entry, the tested form may be a part): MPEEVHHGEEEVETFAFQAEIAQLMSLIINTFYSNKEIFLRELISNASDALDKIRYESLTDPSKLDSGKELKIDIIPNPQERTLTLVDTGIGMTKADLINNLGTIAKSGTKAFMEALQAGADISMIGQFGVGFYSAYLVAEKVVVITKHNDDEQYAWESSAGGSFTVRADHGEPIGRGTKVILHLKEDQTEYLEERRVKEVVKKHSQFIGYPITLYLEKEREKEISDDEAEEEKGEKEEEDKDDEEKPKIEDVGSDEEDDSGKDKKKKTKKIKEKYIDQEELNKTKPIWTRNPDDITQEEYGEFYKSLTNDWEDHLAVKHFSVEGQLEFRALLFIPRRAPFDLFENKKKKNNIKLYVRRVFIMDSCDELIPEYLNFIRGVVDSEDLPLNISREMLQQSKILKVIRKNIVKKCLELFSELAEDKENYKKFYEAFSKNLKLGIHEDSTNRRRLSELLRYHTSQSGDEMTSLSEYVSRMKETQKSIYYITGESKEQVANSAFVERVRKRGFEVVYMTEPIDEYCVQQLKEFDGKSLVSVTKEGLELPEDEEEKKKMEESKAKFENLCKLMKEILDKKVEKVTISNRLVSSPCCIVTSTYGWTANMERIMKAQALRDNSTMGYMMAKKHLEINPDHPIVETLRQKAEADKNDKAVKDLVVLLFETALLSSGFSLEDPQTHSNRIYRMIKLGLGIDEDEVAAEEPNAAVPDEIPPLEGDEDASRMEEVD

Row | Binder | cGMP hydrolysis (PDE6 activity) in lysates of HEK293T cells cotransfected with PDE6C, Pγ and the AIPL1 mutant (nmol•min^−1• mg^−1)
1 | AIPL1-K265A (natural protein) MDVSLLLNVEGVKKTILHGGTGELPSFITGSRVTFHFRTMKCDDERTVIDDSKQVGQPMSIIIGNMFKLEVWETLLTSMRLGEVAEFWCDTIHTGVYPMLSRSLRQVAEGKDPTSWHVHTCGLANMFAYHTLGYEDLDELQKEPQPLVFLIELLQVEAPNEYQRETWNLNNEERMQAVPLLHGEGNRLYKLGRYDQAATKYQEAIVCLRNLQTKEKPWEVEWLKLEKMINTLILNYCQCLLKKEEYYEVLEHTSDILRHHPGIVAAYYMRARAHAEVWNAEEAKADLEKVLELEPSMRKAVLRELRLLESRLADKQEEERQRCRSMLG | 8.8
2 | AIPL1-K265W (natural protein) MDVSLLLNVEGVKKTILHGGTGELPSFITGSRVTFHFRTMKCDDERTVIDDSKQVGQPMSIIIGNMFKLEVWETLLTSMRLGEVAEFWCDTIHTGVYPMLSRSLRQVAEGKDPTSWHVHTCGLANMFAYHTLGYEDLDELQKEPQPLVFLIELLQVEAPNEYQRETWNLNNEERMQAVPLLHGEGNRLYKLGRYDQAATKYQEAIVCLRNLQTKEKPWEVEWLKLEKMINTLILNYCQCLLKKEEYYEVLEHTSDILRHHPGIVWAYYMRARAHAEVWNAEEAKADLEKVLELEPSMRKAVLRELRLLESRLADKQEEERQRCRSMLG | 3
